Assays:
Format in all cases: physicochemical
[1] = Extrusion state from the tip of a 23 G injection needle (characteristics); design: key: ◯: formed a mass or a lump having a shape-maintaining property at the tip of the injection needle; X: did not form a mass; conditions: slowly extruded from an injection needle with 23 G downward
Procedure: (§1) Evaluation was carried out in accordance with the following criteria.

[2] = Viscosity measured with a rotation viscometer; conditions: gel from 1% solution in phosphate buffered physiological saline, photoirradiated, heat treatment; rotation viscometer at 20° C., standard cone (1°34′, 1 rpm)
Procedure: A 1% phosphate buffered physiological saline solution of the obtained naproxen-introduced photo-reactive HA (photo-reactive group: cinnamic acid) was prepared, and filled in a 5 mL glass syringe.
as §1

[3] = Extrusion feeling through a 23 gauge injection needle; design: key: ◯: easily extruded; X: difficulty extruded; conditions: whole gel (2 ml to 5 ml) in 5 ml syringe, 23 gauge needle, limit pressure 0.5 to 5 kg/cm^2
Procedure: Evaluation was carried out in accordance with the following criteria. ◯: easily extruded X: difficulty extruded Incidentally, with regard to the criteria for the extrusion feeling, within the range of a limit pressure (0.5 to 5 kg/cm^2), when a whole gel (2 ml to 5 ml) filled in a syringe having a volume of 5 ml was extruded through an injection needle of 23 gauge, it was evaluated to as easily extruded (◯). Also, according to the same operation, when not a whole gel filled in a syringe was extruded, for example, by clogging due to insoluble materials, it was evaluated to as difficulty extruded (X).

etodolac-introduced photo-crosslinked HA gel [Example 7]
Extruded state [1]: ◯
viscosity [2]: 12.7 Pa·s
Extrusion feeling [3]: ◯

ibuprofen-introduced photo-crosslinked HA gel [Example 3]
Extruded state [1]: ◯
viscosity [2]: 13.1 Pa·s
Extrusion feeling [3]: ◯

actarit-introduced photo-crosslinked HA gel [Example 8]
Extruded state [1]: ◯
viscosity [2]: 10.8 Pa·s
Extrusion feeling [3]: ◯

felbinac-introduced photo-crosslinked sodium hyaluronate gel [Example 5]
Extruded state [1]: X
viscosity [2]: 7.32 Pa·s
Extrusion feeling [3]: ◯

flurbiprofen-introduced photo-crosslinked HA gel [Example 4]
Extruded state [1]: ◯
viscosity [2]: 21.2 Pa·s
Extrusion feeling [3]: ◯

Reference: patent US8354392B2, “Drug-introduced photo-crosslinked hyaluronic acid derived gel” (priority 2005, dated 2013)
